The results in this text go back to patent publication US5595904.

For test [1], the target named is MBP.
Test [2] concerns the target microtubule-associated protein 2 (MAP2).
Test [3] deals with extracellular signal-regulated kinase 1 (ERK1) (rat).

Consider recombinant ERK2 (enzyme), for which the specific activity (phosphorylation of substrate) in test [1] and in test [2] was 1 nmol/min/mg in each case. Turning to “extracellular signal-regulated kinase 1 (ERK1) (enzyme)”, in test [2], the specific activity with MAP2 was 300 nmol/min/mg. As to “catalytic subunit of phosphatase 2a (enzyme)”, the specific activity of ERK1 with MAP2 after dephosphorylation in test [3] came to 4 nmol/min/mg.
